According to patent US20240424062A1 (MEDERIS DIABETES, published 2024):

Legend:
Experiment in all cases: cell-based or functional assay
[1] = target: glucagon receptor (human, cloned into CHO cells) (human, UniProt P47871 26-477)
[2] = target: GLP-1 receptor (human, cloned into CHO cells) (human, UniProt P43220 24-463)
[3] = target: T1, GLP-1 receptor (murine cell line) (murine, UniProt O35659 22-463)
T1 sequence (looked up): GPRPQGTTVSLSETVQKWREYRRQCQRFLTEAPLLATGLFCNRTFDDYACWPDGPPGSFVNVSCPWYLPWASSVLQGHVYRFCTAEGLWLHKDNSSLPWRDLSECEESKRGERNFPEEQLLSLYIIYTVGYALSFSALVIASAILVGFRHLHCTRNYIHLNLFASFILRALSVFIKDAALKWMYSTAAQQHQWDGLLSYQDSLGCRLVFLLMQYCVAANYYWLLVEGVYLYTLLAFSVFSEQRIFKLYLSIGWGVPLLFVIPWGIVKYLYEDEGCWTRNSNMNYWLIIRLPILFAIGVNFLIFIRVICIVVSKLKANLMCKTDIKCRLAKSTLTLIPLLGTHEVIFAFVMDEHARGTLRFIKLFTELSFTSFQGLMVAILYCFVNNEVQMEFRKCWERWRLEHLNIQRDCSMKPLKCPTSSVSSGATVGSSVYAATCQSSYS

Sequence of glucagon receptor (human, cloned into CHO cells) (P47871 26-477): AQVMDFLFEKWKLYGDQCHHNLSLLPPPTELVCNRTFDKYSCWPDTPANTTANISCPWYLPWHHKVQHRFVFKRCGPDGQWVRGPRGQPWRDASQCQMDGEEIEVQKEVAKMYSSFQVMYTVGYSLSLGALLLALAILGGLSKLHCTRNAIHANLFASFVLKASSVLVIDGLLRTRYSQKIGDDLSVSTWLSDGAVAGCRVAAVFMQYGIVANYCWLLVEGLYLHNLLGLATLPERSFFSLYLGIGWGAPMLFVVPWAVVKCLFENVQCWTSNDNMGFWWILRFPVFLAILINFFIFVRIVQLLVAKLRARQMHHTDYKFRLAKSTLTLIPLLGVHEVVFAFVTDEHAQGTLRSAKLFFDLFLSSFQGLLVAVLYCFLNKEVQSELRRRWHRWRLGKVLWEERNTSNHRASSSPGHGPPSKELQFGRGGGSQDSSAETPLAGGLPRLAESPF

B1: EU-A992 (peptide)
peptide: HXQGTFTSDYSKYLDXQAAXEFIXWLLQT
modifications: not fully specified; Aib at 2; Glu*16 and Lys*20 cyclized through their side chains to a lactam; Lys(N-omega(1-octyl beta-D-glucuronyl)) at 24; C-terminal amide (NH2)
- EC50 cAMP (DiscoveRx) [1]: 0.019 nM
- EC50 cAMP (DiscoveRx) [2]: 0.009 nM

B2: EU-A391 (peptide)
peptide: HXQGTXTSDYSKYLDXX
modifications: not fully specified; 1-dodecyl alkyl glycoside surfactant on a linker residue (position not given)
- EC50, cAMP stimulation in cells (Cerep) [3]: 420 nM
